One substance from US7041871 can be followed below.

This test deals with native human CD4 on cells (SupT1 T cell line; human PBL/PBMC) (human) (UniProt P01730). The experiment in a line: ratio of BIAcore Ka on rCD4 to flow cytometry Ka on nCD4.

For the substance chimeric Leu3a (antibody), the Ration of Ka (rCD4/nCD4) is 6.1.
